Experimental data: patent publication US20260001928A1 (CORTERIA PHARMACEUTICALS, priority 2022, published 2026)
*1 amine or outer side, *2 acyl side, *3 side chain or, on linkers, in order; H or OH if unused. Where no end group is shown, it is not given here. Side-chain parts run from the residue outwards. [ ]: non-standard residue; d: D form. The star is where a group is joined. C20 diacid = O=C(O)CCCCCCCCCCCCCCCCCCC(=O)*; C16 diacid = O=C(O)CCCCCCCCCCCCCCC(=O)*; γGlu = O=C(O)[C@H](CCC(=O)[*:2])N[*:1]; NMeI = CC[C@H](C)[C@H](NC)C(=O)O; Pentanoyl = CCCCC(=O)*; Aib = CC(C)(N)C(=O)O

B1: peptide of SEQ ID NO: 213 (peptide)
peptide: Ac-IVLSLD[dV]PIKLK([γGlu-C20 diacid])KILLEQEKQKEQREQAETN[Aib]QILAQV-NH2
SMILES: CC[C@H](C)[C@H](NC(C)=O)C(=O)N[C@H](C(=O)N[C@@H](CC(C)C)C(=O)N[C@@H](CO)C(=O)N[C@@H](CC(C)C)C(=O)N[C@@H](CC(=O)O)C(=O)N[C@@H](C(=O)N1CCC[C@H]1C(=O)N[C@H](C(=O)N[C@@H](CCCCN)C(=O)N[C@@H](CC(C)C)C(=O)N[C@@H](CCCCNC(=O)CC[C@H](NC(=O)CCCCCCCCCCCCCCCCCCC(=O)O)C(=O)O)C(=O)N[C@@H](CCCCN)C(=O)N[C@H](C(=O)N[C@@H](CC(C)C)C(=O)N[C@@H](CC(C)C)C(=O)N[C@@H](CCC(=O)O)C(=O)N[C@@H](CCC(N)=O)C(=O)N[C@@H](CCC(=O)O)C(=O)N[C@@H](CCCCN)C(=O)N[C@@H](CCC(N)=O)C(=O)N[C@@H](CCCCN)C(=O)N[C@@H](CCC(=O)O)C(=O)N[C@@H](CCC(N)=O)C(=O)N[C@@H](CCCNC(=N)N)C(=O)N[C@@H](CCC(=O)O)C(=O)N[C@@H](CCC(N)=O)C(=O)N[C@@H](C)C(=O)N[C@@H](CCC(=O)O)C(=O)N[C@H](C(=O)N[C@@H](CC(N)=O)C(=O)NC(C)(C)C(=O)N[C@@H](CCC(N)=O)C(=O)N[C@H](C(=O)N[C@@H](CC(C)C)C(=O)N[C@@H](C)C(=O)N[C@@H](CCC(N)=O)C(=O)N[C@H](C(N)=O)C(C)C)[C@@H](C)CC)[C@@H](C)O)[C@@H](C)CC)[C@@H](C)CC)C(C)C)C(C)C
B2: peptide of SEQ ID NO: 168 (peptide)
peptide: Ac-IVLSLD[dV]PIKLK([γGlu-C16 diacid])KILLEQEKQKEQREQAETN[Aib]QILAQV-NH2
SMILES: CC[C@H](C)[C@H](NC(C)=O)C(=O)N[C@H](C(=O)N[C@@H](CC(C)C)C(=O)N[C@@H](CO)C(=O)N[C@@H](CC(C)C)C(=O)N[C@@H](CC(=O)O)C(=O)N[C@@H](C(=O)N1CCC[C@H]1C(=O)N[C@H](C(=O)N[C@@H](CCCCN)C(=O)N[C@@H](CC(C)C)C(=O)N[C@@H](CCCCNC(=O)CC[C@H](NC(=O)CCCCCCCCCCCCCCC(=O)O)C(=O)O)C(=O)N[C@@H](CCCCN)C(=O)N[C@H](C(=O)N[C@@H](CC(C)C)C(=O)N[C@@H](CC(C)C)C(=O)N[C@@H](CCC(=O)O)C(=O)N[C@@H](CCC(N)=O)C(=O)N[C@@H](CCC(=O)O)C(=O)N[C@@H](CCCCN)C(=O)N[C@@H](CCC(N)=O)C(=O)N[C@@H](CCCCN)C(=O)N[C@@H](CCC(=O)O)C(=O)N[C@@H](CCC(N)=O)C(=O)N[C@@H](CCCNC(=N)N)C(=O)N[C@@H](CCC(=O)O)C(=O)N[C@@H](CCC(N)=O)C(=O)N[C@@H](C)C(=O)N[C@@H](CCC(=O)O)C(=O)N[C@H](C(=O)N[C@@H](CC(N)=O)C(=O)NC(C)(C)C(=O)N[C@@H](CCC(N)=O)C(=O)N[C@H](C(=O)N[C@@H](CC(C)C)C(=O)N[C@@H](C)C(=O)N[C@@H](CCC(N)=O)C(=O)N[C@H](C(N)=O)C(C)C)[C@@H](C)CC)[C@@H](C)O)[C@@H](C)CC)[C@@H](C)CC)C(C)C)C(C)C
B3: peptide of SEQ ID NO: 218 (peptide)
peptide: [NMeI]VLSLD[dV]PIKLK([γGlu-C20 diacid])KILLEQEKQKEQREQAETN[Aib]QILAQV-NH2
modifications: N-terminus assumed
SMILES: CC[C@H](C)[C@H](NC)C(=O)N[C@H](C(=O)N[C@@H](CC(C)C)C(=O)N[C@@H](CO)C(=O)N[C@@H](CC(C)C)C(=O)N[C@@H](CC(=O)O)C(=O)N[C@@H](C(=O)N1CCC[C@H]1C(=O)N[C@H](C(=O)N[C@@H](CCCCN)C(=O)N[C@@H](CC(C)C)C(=O)N[C@@H](CCCCNC(=O)CC[C@H](NC(=O)CCCCCCCCCCCCCCCCCCC(=O)O)C(=O)O)C(=O)N[C@@H](CCCCN)C(=O)N[C@H](C(=O)N[C@@H](CC(C)C)C(=O)N[C@@H](CC(C)C)C(=O)N[C@@H](CCC(=O)O)C(=O)N[C@@H](CCC(N)=O)C(=O)N[C@@H](CCC(=O)O)C(=O)N[C@@H](CCCCN)C(=O)N[C@@H](CCC(N)=O)C(=O)N[C@@H](CCCCN)C(=O)N[C@@H](CCC(=O)O)C(=O)N[C@@H](CCC(N)=O)C(=O)N[C@@H](CCCNC(=N)N)C(=O)N[C@@H](CCC(=O)O)C(=O)N[C@@H](CCC(N)=O)C(=O)N[C@@H](C)C(=O)N[C@@H](CCC(=O)O)C(=O)N[C@H](C(=O)N[C@@H](CC(N)=O)C(=O)NC(C)(C)C(=O)N[C@@H](CCC(N)=O)C(=O)N[C@H](C(=O)N[C@@H](CC(C)C)C(=O)N[C@@H](C)C(=O)N[C@@H](CCC(N)=O)C(=O)N[C@H](C(N)=O)C(C)C)[C@@H](C)CC)[C@@H](C)O)[C@@H](C)CC)[C@@H](C)CC)C(C)C)C(C)C
B4: peptide of SEQ ID NO: 217 (peptide)
peptide: [NMeI]VLSLD[dV]PIKLK([γGlu-C20 diacid])KILLEQEKQKAQREQAETN[Aib]QILAQV-NH2
modifications: N-terminus assumed
SMILES: CC[C@H](C)[C@H](NC)C(=O)N[C@H](C(=O)N[C@@H](CC(C)C)C(=O)N[C@@H](CO)C(=O)N[C@@H](CC(C)C)C(=O)N[C@@H](CC(=O)O)C(=O)N[C@@H](C(=O)N1CCC[C@H]1C(=O)N[C@H](C(=O)N[C@@H](CCCCN)C(=O)N[C@@H](CC(C)C)C(=O)N[C@@H](CCCCNC(=O)CC[C@H](NC(=O)CCCCCCCCCCCCCCCCCCC(=O)O)C(=O)O)C(=O)N[C@@H](CCCCN)C(=O)N[C@H](C(=O)N[C@@H](CC(C)C)C(=O)N[C@@H](CC(C)C)C(=O)N[C@@H](CCC(=O)O)C(=O)N[C@@H](CCC(N)=O)C(=O)N[C@@H](CCC(=O)O)C(=O)N[C@@H](CCCCN)C(=O)N[C@@H](CCC(N)=O)C(=O)N[C@@H](CCCCN)C(=O)N[C@@H](C)C(=O)N[C@@H](CCC(N)=O)C(=O)N[C@@H](CCCNC(=N)N)C(=O)N[C@@H](CCC(=O)O)C(=O)N[C@@H](CCC(N)=O)C(=O)N[C@@H](C)C(=O)N[C@@H](CCC(=O)O)C(=O)N[C@H](C(=O)N[C@@H](CC(N)=O)C(=O)NC(C)(C)C(=O)N[C@@H](CCC(N)=O)C(=O)N[C@H](C(=O)N[C@@H](CC(C)C)C(=O)N[C@@H](C)C(=O)N[C@@H](CCC(N)=O)C(=O)N[C@H](C(N)=O)C(C)C)[C@@H](C)CC)[C@@H](C)O)[C@@H](C)CC)[C@@H](C)CC)C(C)C)C(C)C
B5: peptide of SEQ ID NO: 222 (peptide)
peptide: Pentanoyl-VLSLD[dV]PIKLK([γGlu-C20 diacid])KILLEQEKQKAQREQAETN[Aib]QILAQV-NH2
SMILES: CCCCC(=O)N[C@H](C(=O)N[C@@H](CC(C)C)C(=O)N[C@@H](CO)C(=O)N[C@@H](CC(C)C)C(=O)N[C@@H](CC(=O)O)C(=O)N[C@@H](C(=O)N1CCC[C@H]1C(=O)N[C@H](C(=O)N[C@@H](CCCCN)C(=O)N[C@@H](CC(C)C)C(=O)N[C@@H](CCCCNC(=O)CC[C@H](NC(=O)CCCCCCCCCCCCCCCCCCC(=O)O)C(=O)O)C(=O)N[C@@H](CCCCN)C(=O)N[C@H](C(=O)N[C@@H](CC(C)C)C(=O)N[C@@H](CC(C)C)C(=O)N[C@@H](CCC(=O)O)C(=O)N[C@@H](CCC(N)=O)C(=O)N[C@@H](CCC(=O)O)C(=O)N[C@@H](CCCCN)C(=O)N[C@@H](CCC(N)=O)C(=O)N[C@@H](CCCCN)C(=O)N[C@@H](C)C(=O)N[C@@H](CCC(N)=O)C(=O)N[C@@H](CCCNC(=N)N)C(=O)N[C@@H](CCC(=O)O)C(=O)N[C@@H](CCC(N)=O)C(=O)N[C@@H](C)C(=O)N[C@@H](CCC(=O)O)C(=O)N[C@H](C(=O)N[C@@H](CC(N)=O)C(=O)NC(C)(C)C(=O)N[C@@H](CCC(N)=O)C(=O)N[C@H](C(=O)N[C@@H](CC(C)C)C(=O)N[C@@H](C)C(=O)N[C@@H](CCC(N)=O)C(=O)N[C@H](C(N)=O)C(C)C)[C@@H](C)CC)[C@@H](C)O)[C@@H](C)CC)[C@@H](C)CC)C(C)C)C(C)C
B6: peptide of SEQ ID NO: 212 (peptide)
peptide: Ac-IVLSLD[dV]PIKLK([γGlu-C20 diacid])KILLEQEKQKAQREQAETN[Aib]QILAQV-NH2
SMILES: CC[C@H](C)[C@H](NC(C)=O)C(=O)N[C@H](C(=O)N[C@@H](CC(C)C)C(=O)N[C@@H](CO)C(=O)N[C@@H](CC(C)C)C(=O)N[C@@H](CC(=O)O)C(=O)N[C@@H](C(=O)N1CCC[C@H]1C(=O)N[C@H](C(=O)N[C@@H](CCCCN)C(=O)N[C@@H](CC(C)C)C(=O)N[C@@H](CCCCNC(=O)CC[C@H](NC(=O)CCCCCCCCCCCCCCCCCCC(=O)O)C(=O)O)C(=O)N[C@@H](CCCCN)C(=O)N[C@H](C(=O)N[C@@H](CC(C)C)C(=O)N[C@@H](CC(C)C)C(=O)N[C@@H](CCC(=O)O)C(=O)N[C@@H](CCC(N)=O)C(=O)N[C@@H](CCC(=O)O)C(=O)N[C@@H](CCCCN)C(=O)N[C@@H](CCC(N)=O)C(=O)N[C@@H](CCCCN)C(=O)N[C@@H](C)C(=O)N[C@@H](CCC(N)=O)C(=O)N[C@@H](CCCNC(=N)N)C(=O)N[C@@H](CCC(=O)O)C(=O)N[C@@H](CCC(N)=O)C(=O)N[C@@H](C)C(=O)N[C@@H](CCC(=O)O)C(=O)N[C@H](C(=O)N[C@@H](CC(N)=O)C(=O)NC(C)(C)C(=O)N[C@@H](CCC(N)=O)C(=O)N[C@H](C(=O)N[C@@H](CC(C)C)C(=O)N[C@@H](C)C(=O)N[C@@H](CCC(N)=O)C(=O)N[C@H](C(N)=O)C(C)C)[C@@H](C)CC)[C@@H](C)O)[C@@H](C)CC)[C@@H](C)CC)C(C)C)C(C)C

Target: Rat CRF2 a (corticotropin-releasing factor receptor 2), on the A7R5 rat aortic smooth muscle cell line (rat, UniProt P47866 20-411)
Assay: cell-based or functional assay

Rat CRF2 a (corticotropin-releasing factor receptor 2), on the A7R5 rat aortic smooth muscle cell line, sequence (P47866 20-411): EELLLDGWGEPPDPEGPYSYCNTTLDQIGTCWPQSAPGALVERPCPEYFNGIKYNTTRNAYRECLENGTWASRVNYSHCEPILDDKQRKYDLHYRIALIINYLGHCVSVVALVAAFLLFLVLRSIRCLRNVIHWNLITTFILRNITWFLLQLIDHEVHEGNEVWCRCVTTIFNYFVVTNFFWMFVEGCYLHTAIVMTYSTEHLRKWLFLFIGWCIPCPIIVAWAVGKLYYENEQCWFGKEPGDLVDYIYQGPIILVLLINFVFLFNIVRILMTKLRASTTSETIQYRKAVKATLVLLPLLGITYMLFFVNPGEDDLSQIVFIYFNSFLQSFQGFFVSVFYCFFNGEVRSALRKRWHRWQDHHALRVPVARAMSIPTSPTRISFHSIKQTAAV

Row | Binder | EC50 [nM] 0% HSA (cAMP, A7R5 rat aortic smooth muscle cells)
1 | B1 | 0.45 nM
2 | B2 | 3.23 nM
3 | B3 | 0.13 nM
4 | B4 | 0.06 nM
5 | B5 | 0.18 nM
6 | B6 | 0.08 nM
